The target in test [1] is endogenous BRCA1 from 293T cell nuclear extracts (UniProt P38398 1-1863, limits assumed). The experiment in a line: peptide pull-down from 293T nuclear extracts (FIG. 4I).
Test [2] concerns the target T1, GST-tagged N-motif (1-205) of the WSTF kinase domain (human, UniProt Q9UIG0 1-205).
T1 construct: Made in E. coli; also called GST-tagged WAC N-; N-terminal motif; not shown: N-terminal GST tag of pGex6p
T1 sequence: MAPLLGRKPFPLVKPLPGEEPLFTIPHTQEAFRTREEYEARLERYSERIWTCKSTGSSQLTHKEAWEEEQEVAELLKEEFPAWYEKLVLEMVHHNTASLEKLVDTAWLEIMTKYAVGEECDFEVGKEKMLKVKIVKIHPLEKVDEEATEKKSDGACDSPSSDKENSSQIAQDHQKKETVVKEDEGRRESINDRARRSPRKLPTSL
Briefly: co-expression in E. coli, amylose affinity purification against the MBP tag, Superdex 200 gel filtration. How it is done:
For co-expression of the N- and C-motifs of WSTF, the recombinant plasmid vectors carrying the N- and C-motif constructs (above) were transformed into E. coli host strain Rosetta2 (DE3) (Novagen) for protein expression under triple antibiotic selection (ampicillin, kanamycin, and chloramphenicol) in LB medium. After overnight induction by 0.4 mM isopropyl β-D-thiogalactoside at 25° C., cells were harvested in buffer 0.4 M KCl, 20 mM Tris, pH 7.5. Co-expressed proteins were affinity purified using Amylose resin (New England Biolabs, MA) against the MBP tag. Maltose-eluted samples were purified through a Superdex 200 column (GE Healthcare) in the elution buffer (50 mM KCL, 20 mM Tris, pH 7.5). Most proteins were eluted in a single peak that contains GST-tagged […] with a stoichiometry of 1:1.
On the technique in general: Size exclusion chromatography separates by hydrodynamic size, large species first.

Where no end group is shown, it is not given here. [ ]: non-standard residue; d: D form. pS = N[C@@H](COP(=O)(O)O)C(=O)O

Sequence of endogenous BRCA1 from 293T cell nuclear extracts (P38398 whole entry, the tested form may be a part): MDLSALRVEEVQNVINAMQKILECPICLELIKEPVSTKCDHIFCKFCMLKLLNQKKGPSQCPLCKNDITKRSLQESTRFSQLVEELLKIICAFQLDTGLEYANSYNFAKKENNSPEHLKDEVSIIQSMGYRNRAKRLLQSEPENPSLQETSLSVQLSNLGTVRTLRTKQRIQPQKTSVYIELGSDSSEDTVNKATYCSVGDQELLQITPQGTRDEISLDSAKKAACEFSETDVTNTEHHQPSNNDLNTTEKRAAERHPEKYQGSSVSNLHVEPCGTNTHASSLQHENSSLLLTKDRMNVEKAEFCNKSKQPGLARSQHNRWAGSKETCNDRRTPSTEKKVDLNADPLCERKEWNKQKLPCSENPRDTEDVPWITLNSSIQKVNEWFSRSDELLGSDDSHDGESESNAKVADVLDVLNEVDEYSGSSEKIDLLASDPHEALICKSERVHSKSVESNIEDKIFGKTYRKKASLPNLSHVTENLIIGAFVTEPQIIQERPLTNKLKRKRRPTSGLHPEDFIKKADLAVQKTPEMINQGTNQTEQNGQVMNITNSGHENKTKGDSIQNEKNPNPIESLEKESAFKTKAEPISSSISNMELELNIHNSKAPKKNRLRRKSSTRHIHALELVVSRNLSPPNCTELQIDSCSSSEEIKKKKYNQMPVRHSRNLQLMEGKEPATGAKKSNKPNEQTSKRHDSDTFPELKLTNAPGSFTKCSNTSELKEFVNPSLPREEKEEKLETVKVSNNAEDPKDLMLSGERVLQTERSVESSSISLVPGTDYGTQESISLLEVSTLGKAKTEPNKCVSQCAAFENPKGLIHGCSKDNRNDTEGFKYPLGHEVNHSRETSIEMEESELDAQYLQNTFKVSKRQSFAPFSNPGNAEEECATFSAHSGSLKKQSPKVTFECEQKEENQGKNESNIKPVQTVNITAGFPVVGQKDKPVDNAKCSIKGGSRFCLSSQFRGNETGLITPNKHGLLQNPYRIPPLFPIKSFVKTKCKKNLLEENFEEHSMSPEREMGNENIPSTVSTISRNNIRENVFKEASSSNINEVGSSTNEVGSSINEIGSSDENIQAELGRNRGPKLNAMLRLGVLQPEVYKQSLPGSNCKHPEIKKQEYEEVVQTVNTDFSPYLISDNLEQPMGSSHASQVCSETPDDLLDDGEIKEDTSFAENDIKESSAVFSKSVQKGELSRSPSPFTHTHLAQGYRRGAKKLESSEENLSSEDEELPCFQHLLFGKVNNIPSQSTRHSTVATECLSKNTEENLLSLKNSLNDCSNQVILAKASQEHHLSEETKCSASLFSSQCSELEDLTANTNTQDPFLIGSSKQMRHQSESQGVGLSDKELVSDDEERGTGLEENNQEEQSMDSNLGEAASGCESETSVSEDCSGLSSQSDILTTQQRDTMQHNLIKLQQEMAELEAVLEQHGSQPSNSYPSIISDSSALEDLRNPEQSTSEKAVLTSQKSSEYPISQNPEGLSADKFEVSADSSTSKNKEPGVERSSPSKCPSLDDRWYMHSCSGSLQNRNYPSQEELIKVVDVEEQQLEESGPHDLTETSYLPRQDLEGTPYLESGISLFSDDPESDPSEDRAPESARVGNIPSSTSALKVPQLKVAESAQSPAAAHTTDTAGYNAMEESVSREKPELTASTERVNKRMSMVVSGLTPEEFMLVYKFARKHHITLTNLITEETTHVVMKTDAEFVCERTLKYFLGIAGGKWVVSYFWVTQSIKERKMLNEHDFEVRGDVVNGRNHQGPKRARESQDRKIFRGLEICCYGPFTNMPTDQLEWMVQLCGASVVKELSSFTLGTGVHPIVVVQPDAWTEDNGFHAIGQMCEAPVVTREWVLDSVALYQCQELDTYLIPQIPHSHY

B1: H2A.X peptide S139(ph), N-CPSGGKKATQApSQEY-C (peptide)
peptide: CPSGGKKATQA[pS]QEY
notes: Pull-down peptide; also called Ser139(ph) peptides; H2A.X peptides singly phosphorylated on Ser139
For B1, in test [1], the binding result is on record as “no binding”.

B2: MBP-tagged C-motif (208-345) of the WSTF kinase domain (other)
chain: GERKWAPPKFLPHKYDVKLQNEDKIISNVPADSLIRTERPPNKEIVRYFIRHNALRAGTGENAPWVVEDELVKKYSLPSKFSDFLLDPYKYMTLNPSTKRKNTGSPDRKPSKKSKTDNSSLSSPLNPKLWCHVHLKKS
notes: Made in E. coli; also called MBP-tagged WAC C-motif; not shown: N-terminal MBP tag of a modified pRSFDuet-1
Consider B2, for which the binding result in test [2] is recorded as “binds”.

These data come from patent US20100080799A1 (ROCKEFELLER UNIVERSITY, published 2010).
